Measured values: the supplement of paper PMC6757056
± gives the standard deviation of the averaged measurements.

B1: library; a variant is named by its letters at N, in order (parent)
chain: GCUGUCACCGGUGCUUGGUACGUUAUAUUCAGCCGGUCUGAUGAGUCUNNNNNNAGACGAAACAGC

Experiments:
(6R,S)-folinic acid [1] = variants of: B1; assay: normalized RNA/DNA level without ligand (relative to sTRSVctl = 100) (log10 (% of sTRSVctl)); HEK293T overexpressing SLC46A1; higher = less ribozyme self-cleavage, higher mRNA level; details: without (6R,S)-folinic acid; ligand present: no
Method in brief: (§1)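 For each 6-well well, 4 µg of library plasmid encoding mCherry-linked ribozyme switches, or eGFP-linked ones in some ligand experiments, was transfected into HEK293T. Any ligand was added 1 h before transfection, and RNA was extracted with EDTA 72 h after it, then reverse-transcribed, amplified, barcoded and sequenced. RNA level was obtained by dividing RNA reads by DNA reads, normalizing to a spiked-in non-cleaving sequence or to the top sequences, then scaling and log-transforming. The top set was 25 sequences, scaling was ×100 with log10, and ≥100 DNA reads were required.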

(6R,S)-folinic acid [2] = variants of: B1; assay: normalized RNA/DNA level with ligand (relative to sTRSVctl = 100) (log10 (% of sTRSVctl)); HEK293T overexpressing SLC46A1; ligand concentration (+) RNA-Seq: 6 mM; higher = less ribozyme self-cleavage, higher mRNA level; details: with (6R,S)-folinic acid; ligand present: yes
Method in brief: as §1

| Variant | normalized RNA/DNA level without ligand (log10) ((6R,S)-folinic acid [1]) | normalized RNA/DNA level with ligand (log10) ((6R,S)-folinic acid [2]) |
| --- | --- | --- |
| GCCUUU | 2.04 ± 0.032 | 2.05 ± 0.044 |
| GCCUUC | 2.05 ± 0.042 | 2.062 ± 0.012 |
| GCCUUG | 1.994 ± 0.0032 | 2.03 ± 0.033 |
| GCCUAU | 2.027 ± 0.018 | 2.065 ± 0.02 |
| UCGGCA | 2.03 ± 0.029 | 2.04 ± 0.034 |
| UCGGCG | 1.997 ± 0.011 | 2.05 ± 0.046 |
| ACGCUC | 2.053 ± 0.015 | 2.05 ± 0.036 |
| ACGCUA | 2.013 ± 0.018 | 2.03 ± 0.06 |
| ACGCUG | 2.015 ± 0.0048 | 2.057 ± 0.015 |
| ACGAGC | 2.005 ± 0.012 | 2.041 ± 0.019 |
| ACGAGG | 1.86 ± 0.034 | 1.995 ± 0.011 |
| ACGAGU | 2.027 ± 0.0034 | 2.028 ± 0.0065 |
| ACGAGA | 1.968 ± 0.011 | 2.03 ± 0.028 |
| GCGGAU | 2.021 ± 0.0026 | 2.04 ± 0.042 |
| GCGGAC | 1.972 ± 0.0066 | 2.05 ± 0.029 |
| GCGGAA | 1.978 ± 0.007 | 2.02 ± 0.048 |
| GCGAUC | 2.039 ± 0.014 | 2.003 ± 0.015 |
| GCGAUU | 2.032 ± 0.016 | 2.04 ± 0.048 |
| GCGAUA | 1.999 ± 0.0087 | 2 ± 0.011 |
| UCGCGG | 2.067 ± 0.0045 | 2.084 ± 0.02 |
| UCGCGC | 2.046 ± 0.014 | 2.03 ± 0.03 |
| UCGCGU | 2.033 ± 0.0037 | 2.04 ± 0.032 |
| UCGCGA | 2.0026 ± 0.0006 | 2.02 ± 0.068 |

| Variant | normalized RNA/DNA level without ligand (log10) ((6R,S)-folinic acid [1]) | normalized RNA/DNA level with ligand (log10) ((6R,S)-folinic acid [2]) |
| --- | --- | --- |
| CCGACA | 2.02 ± 0.029 | 2.04 ± 0.035 |
| CCGACU | 2.062 ± 0.0038 | 2.01 ± 0.027 |
| CCGACC | 2.063 ± 0.0099 | 2.04 ± 0.062 |
| CCGACG | 2.033 ± 0.013 | 2.0354 ± 0.0001 |
| CCGGUC | 2.0714 ± 0.0011 | 2.03 ± 0.069 |
| CCGGUA | 2.01 ± 0.038 | 2.009 ± 0.011 |
| CCGGUG | 2.04 ± 0.04 | 2.051 ± 0.0038 |
| CCCUUA | 2.065 ± 0.0096 | 2.08 ± 0.064 |
| CCCUUG | 2.069 ± 0.0099 | 2.091 ± 0.017 |
| CCCUUU | 2.06 ± 0.024 | 2.06 ± 0.044 |
| GCGAGG | 1.98 ± 0.023 | 2.05 ± 0.046 |
| GCGAGU | 1.99 ± 0.04 | 2.03 ± 0.051 |
| ACCUUG | 1.953 ± 0.0055 | 1.999 ± 0.011 |
| ACCUUC | 2.038 ± 0.014 | 2.04 ± 0.045 |
| ACCUUU | 2.071 ± 0.0086 | 2.02 ± 0.021 |
| ACCUUA | 2.045 ± 0.009 | 2.041 ± 0.017 |
| CCGAUU | 2.06 ± 0.051 | 2.053 ± 0.018 |
| CCGAUA | 1.996 ± 0.0089 | 2.011 ± 0.018 |
| CCGAUG | 2 ± 0.023 | 1.99 ± 0.036 |
| CCGAUC | 2.055 ± 0.018 | 2.03 ± 0.03 |
| UCGACG | 1.867 ± 0.017 | 1.9974 ± 0.0011 |
| UCGACC | 2.052 ± 0.0052 | 2.04 ± 0.036 |
| UCGACA | 1.999 ± 0.0076 | 2.022 ± 0.0062 |

| Variant | normalized RNA/DNA level without ligand (log10) ((6R,S)-folinic acid [1]) | normalized RNA/DNA level with ligand (log10) ((6R,S)-folinic acid [2]) |
| --- | --- | --- |
| GCCUCG | 2.034 ± 0.016 | 2.04 ± 0.046 |
| GCCUCA | 2.041 ± 0.02 | 2.05 ± 0.044 |
| GCCUCC | 2.068 ± 0.0082 | 2.05 ± 0.033 |
| GCCUCU | 2.0468 ± 0.0011 | 2.07 ± 0.027 |
| ACGACU | 1.997 ± 0.0037 | 2.006 ± 0.017 |
| ACCUGC | 2.07 ± 0.016 | 2.04 ± 0.044 |
| ACCUGG | 1.9783 ± 0.00064 | 2.04 ± 0.034 |
| ACCUGU | 2.01 ± 0.025 | 2 ± 0.024 |
| ACCUGA | 1.999 ± 0.003 | 2.03 ± 0.029 |
| UCGGAC | 2.048 ± 0.0021 | 2.0514 ± 0.00022 |
| ACGUAC | 2.018 ± 0.0052 | 2.02 ± 0.046 |
| ACGUAU | 1.943 ± 0.005 | 2.02 ± 0.008 |
| CCCUGG | 2.101 ± 0.017 | 2.02 ± 0.022 |
| CCCUGU | 2.1 ± 0.0073 | 2.102 ± 0.016 |
| CCCUGA | 2.088 ± 0.014 | 2.1 ± 0.051 |
| CCCUGC | 2.08 ± 0.025 | 2.08 ± 0.014 |
| CCGUAG | 1.93 ± 0.035 | 1.99 ± 0.022 |
| CCGUAU | 2.016 ± 0.0098 | 2.022 ± 0.0084 |
| CCGUAA | 1.981 ± 0.016 | 1.98 ± 0.032 |
| CCGUAC | 1.99 ± 0.019 | 2.014 ± 0.017 |
| UCGCAC | 2.04 ± 0.025 | 2.03 ± 0.048 |
| UCGCAG | 1.921 ± 0.0076 | 2.01 ± 0.024 |
| UCGCAA | 1.973 ± 0.017 | 1.998 ± 0.018 |

| Variant | normalized RNA/DNA level without ligand (log10) ((6R,S)-folinic acid [1]) | normalized RNA/DNA level with ligand (log10) ((6R,S)-folinic acid [2]) |
| --- | --- | --- |
| ACGAUA | 1.971 ± 0.0039 | 2.02 ± 0.036 |
| ACGAUU | 2.0259 ± 0.00039 | 2.03 ± 0.026 |
| ACGAUG | 1.925 ± 0.016 | 2.03 ± 0.031 |
| ACGUCU | 2.04 ± 0.028 | 2.025 ± 0.013 |
| ACGUCG | 2 ± 0.022 | 2.06 ± 0.014 |
| ACGUCA | 2.037 ± 0.0081 | 2.027 ± 0.0046 |
| ACGUCC | 2.03 ± 0.023 | 2 ± 0.068 |
| CCGUGC | 2.03 ± 0.048 | 1.99 ± 0.041 |
| CCGUGA | 2.03 ± 0.021 | 2.05 ± 0.037 |
| GCGGUU | 2.07 ± 0.0088 | 2.02 ± 0.05 |
| GCGGUA | 1.98 ± 0.017 | 2.011 ± 0.014 |
| GCGGUC | 2.06 ± 0.024 | 2.06 ± 0.056 |
| GCGGUG | 2.032 ± 0.0067 | 2.07 ± 0.07 |
| CCCUCG | 2.04 ± 0.025 | 1.997 ± 0.014 |
| CCCUCC | 2.07 ± 0.015 | 2.006 ± 0.014 |
| CCCUCU | 2.1 ± 0.026 | 2.09 ± 0.057 |
| UCGGGC | 2.06 ± 0.021 | 2.03 ± 0.055 |
| UCGGGA | 1.937 ± 0.012 | 2.03 ± 0.056 |
| UCGGGU | 1.9958 ± 0.001 | 2.03 ± 0.038 |
| UCGGGG | 1.86 ± 0.027 | 1.99 ± 0.039 |
| GCGCUU | 2.053 ± 0.018 | 2.048 ± 0.015 |
| GCGCUC | 2.05 ± 0.049 | 2.01 ± 0.043 |
| GCGCUG | 2.11 ± 0.022 | 2.1 ± 0.024 |

| Variant | normalized RNA/DNA level without ligand (log10) ((6R,S)-folinic acid [1]) | normalized RNA/DNA level with ligand (log10) ((6R,S)-folinic acid [2]) |
| --- | --- | --- |
| CCGGCG | 2.05 ± 0.025 | 2.05 ± 0.038 |
| CCGGCC | 2.094 ± 0.013 | 2.03 ± 0.013 |
| CCGGCU | 2.08 ± 0.029 | 2.051 ± 0.013 |
| CCGGCA | 2.108 ± 0.021 | 2.049 ± 0.016 |
| ACGGGG | 1.997 ± 0.018 | 2.065 ± 0.02 |
| ACGGGC | 2.097 ± 0.0034 | 2.09 ± 0.031 |
| ACGGGU | 1.989 ± 0.0096 | 2.04 ± 0.034 |
| UCGAGC | 2.022 ± 0.017 | 2.026 ± 0.011 |
| UCGAGA | 2.006 ± 0.0024 | 2.07 ± 0.049 |
| UCGAGG | 1.938 ± 0.017 | 2 ± 0.025 |
| GCGCAA | 1.948 ± 0.0028 | 1.98 ± 0.027 |
| GCGCAU | 1.9847 ± 0.0014 | 2 ± 0.038 |
| GCGCAG | 2 ± 0.022 | 2.03 ± 0.027 |
| CCGCUU | 2.04 ± 0.024 | 2.0508 ± 0.0014 |
| CCGCUA | 2.01 ± 0.019 | 2.02 ± 0.043 |
| CCGCUC | 2.112 ± 0.0092 | 2.09 ± 0.081 |
| CCGCUG | 2.047 ± 0.0097 | 2.067 ± 0.012 |
| ACGCGU | 2.022 ± 0.0046 | 2.02 ± 0.018 |
| ACGCGG | 1.965 ± 0.004 | 2.03 ± 0.066 |
| ACGCGC | 1.997 ± 0.0046 | 2.01 ± 0.059 |
| ACGCGA | 1.986 ± 0.011 | 2.042 ± 0.0061 |
| ACCUCA | 2.047 ± 0.0058 | 2.07 ± 0.049 |
| ACCUCU | 2.019 ± 0.0056 | 2.014 ± 0.015 |
